Assay results published in EP2899279A1.

T1: Grapevine fanleaf virus strain F13 (purified viral particles) (Grapevine fanleaf virus, strain F13) (UniProt P18474)
T1 sequence (looked up): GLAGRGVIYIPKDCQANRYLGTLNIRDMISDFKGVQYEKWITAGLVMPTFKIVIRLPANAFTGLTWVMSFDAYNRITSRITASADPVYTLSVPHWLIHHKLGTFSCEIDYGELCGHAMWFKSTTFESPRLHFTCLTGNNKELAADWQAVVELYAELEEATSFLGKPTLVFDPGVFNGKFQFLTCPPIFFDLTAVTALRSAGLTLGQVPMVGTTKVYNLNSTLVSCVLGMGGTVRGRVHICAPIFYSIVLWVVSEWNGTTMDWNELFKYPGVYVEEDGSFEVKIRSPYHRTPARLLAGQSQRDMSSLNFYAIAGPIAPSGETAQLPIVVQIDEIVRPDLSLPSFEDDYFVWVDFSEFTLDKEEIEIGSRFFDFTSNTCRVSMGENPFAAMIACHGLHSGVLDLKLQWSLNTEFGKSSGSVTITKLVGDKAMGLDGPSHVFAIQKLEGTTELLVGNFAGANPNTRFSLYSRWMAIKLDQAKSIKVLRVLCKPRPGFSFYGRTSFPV


Key:
[1] = molecular target: T1, Grapevine fanleaf virus strain F13 (purified viral particles) (Grapevine fanleaf virus, strain F13); experiment: dynamic light scattering: GFLV-F13 at 0.1 mg/ml with Nb23:EGFP at 0.9 mg/ml; virus alone 32 nm
[2] = molecular target: T1, Grapevine fanleaf virus strain F13 (purified viral particles) (Grapevine fanleaf virus, strain F13); experiment: dynamic light scattering: GFLV-F13 at 0.1 mg/ml with Nb23 at 0.1 mg/ml; virus alone 32 nm

Row | Binder | average hydrodynamic diameter of viral particles in the presence of the binder [1] [nm] | average hydrodynamic diameter of viral particles in the presence of the binder [2] [nm]
1 | Nb23:EGFP fusion protein (Nb23:EGFP:His6, expressed in E. coli) (protein, part only; not given: EGFP and cloning residues, not shown: large carriers) chain, part: QVQLQESGGGSVQVGGSLRVACAASGDTFSGYLAAWFRQAPGKGREGVAAINSKRHTTSYADSVKGRFTISKDNADNIMYLEMNSLKPEDTAIYYCAAADAIGLAEYWSTPTLSAARYKYWGQGTQVTVSSGGGSGGGHHHHHH | 43.8 | –
2 | Nb23 (His6-tagged, purified from E. coli) (VHH) VHH: QVQLQESGGGSVQVGGSLRVACAASGDTFSGYLAAWFRQAPGKGREGVAAINSKRHTTSYADSVKGRFTISKDNADNIMYLEMNSLKPEDTAIYYCAAADAIGLAEYWSTPTLSAARYKYWGQGTQVTVSS | – | 37.8
